According to article PMC9992347 (Molecular cell, 2023):
Substitutions are numbered along the chain they refer to. Names may count otherwise.

B1: SPOP^1-374 W22R (natural protein, human, UniProt O43791 1-374, looked up)
chain: MSRVPSPPPPAEMSSGPVAESRCYTQIKVVKFSYMWTINNFSFCREEMGEVIKSSTFSSGANDKLKWCLRVNPKGLDEESKDYLSLYLLLVSCPKSEVRAKFKFSILNAKGEETKAMESQRAYRFVQGKDWGFKKFIRRDFLLDEANGLLPDDKLTLFCEVSVVQDSVNISGQNTMNMVKVPECRLADELGGLWENSRFTDCCLCVAGQEFQAHKAILAARSPVFSAMFEHEMEESKKNRVEINDVEPEVFKEMMCFIYTGKAPNLDKMADDLLAAADKYALERLKVMCEDALCSNLSVENAAEILILADLHSADQLKTQAVDFINYHASDVLETSGWKSMVVSHPHLVAEAYRSLASAQCPFLGPPRKRLKQS
B2: SPOP^1-374 W131G (natural protein, human, UniProt O43791 1-374, looked up)
chain: B1 chain with R22W, W131G
B3: SPOP^1-374 E47K (natural protein, human, UniProt O43791 1-374, looked up)
chain: B1 chain with R22W, E47K

Experiments:
[1] = biological target: the molecule itself; test: cryo-EM structure
[2] = biological target: the molecule itself; test: small-angle X-ray scattering

| Protein | binding result [1] | binding result [2] |
| --- | --- | --- |
| B1 | binds | – |
| B2 | – | binds |
| B3 | binds | – |
